From the supplement of paper PMC11246515
± gives the standard deviation of the averaged measurements.

Test: total protein half-life in vivo (active degradation + dilution); higher = more stable protein
[1] = E. coli NCM3722 delta-clpP delta-lon delta-hslV, growth: N-lim chemostat, doubling time 6 h
[2] = E. coli NCM3722 delta-clpP, growth: N-lim chemostat, doubling time 6 h
[3] = E. coli NCM3722 delta-hslV, growth: N-lim chemostat, doubling time 6 h
[4] = E. coli NCM3722 delta-lon, growth: N-lim chemostat, doubling time 6 h
[5] = E. coli NCM3722 delta-smpB, growth: N-lim chemostat, doubling time 6 h
[6] = wild type E. coli NCM3722, growth: C-lim chemostat, doubling time 3 h
[7] = wild type E. coli NCM3722, growth: C-lim chemostat, doubling time 6 h
[8] = wild type E. coli NCM3722, growth: C-lim chemostat, doubling time 12 h
[9] = wild type E. coli NCM3722, growth: N-lim chemostat, doubling time 6 h
[10] = wild type E. coli NCM3722, growth: N-lim chemostat, doubling time 12 h
[11] = wild type E. coli NCM3722, growth: P-lim chemostat, doubling time 6 h
[12] = wild type E. coli NCM3722, growth: P-lim chemostat, doubling time 12 h

Sequence | total protein half-life in vivo [1] | total protein half-life in vivo [2] | total protein half-life in vivo [3] | total protein half-life in vivo [4] | total protein half-life in vivo [5] | total protein half-life in vivo [6] | total protein half-life in vivo [7] | total protein half-life in vivo [8] | total protein half-life in vivo [9] | total protein half-life in vivo [10] | total protein half-life in vivo [11] | total protein half-life in vivo [12]
MKILVIGPSWVGDMMMSQSLYRTLQARYPQAIIDVMAPAWCRPLLSRMPEVNEAIPMPLGHGALEIGERRKLGHSLREKRYDRAYVLPNSFKSALVPFFAGIPHRTGWRGEMRYGLLNDVRVLDKEAWPLMVERYIALAYDKGIMRTAQDLPQPLLWPQLQVSEGEKSYTCNQFSLSSERPMIGFCPGAEFGPAKRWPHYHYAELAKQLIDEGYQVVLFGSAKDHEAGNEILAALNTEQQAWCRNLAGETQLDQAVILIAACKAIVTNDSGLMHVAAALNRPLVALYGPSSPDFTPPLSHKARVIRLITGYHKVRKGDAAEGYHQSLIDITPQRVLEELNALLLQEEA | 6.06 ± 0.088 h | 6.69 ± 0.98 h | 5.71 ± 0.23 h | 5.22 ± 0.11 h | 6.11 ± 0.48 h | 3.24 ± 0.14 h | 5.58 ± 0.14 h | 11.7 ± 2.8 h | 6.4 ± 0.97 h | 11.1 ± 1.8 h | 6.54 ± 0.24 h | 11.7 ± 1.7 h
MFHCPLCQHAAHARTSRYITDTTKERYHQCQNVNCSATFITYESVQRYIVKPGEVHVVRPHPLPSGQQIMWM | 5.58 ± 1.3 h | – | – | – | – | – | – | – | – | – | – | –
MIPQISQAPGVVQLVLNFLQELEQQGFTGDTATSYADRLTMSTDNSIYQLLPDAVVFPRSTADVALIARLAAQERYSSLIFTPRGGGTGTNGQALNQGIIVDMSRHMNRIIEINPEEGWVRVEAGVIKDQLNQYLKPFGYFFAPELSTSNRATLGGMINTDASGQGSLVYGKTSDHVLGVRAVLLGGDILDTQPLPVELAETLGKSNTTIGRIYNTVYQRCRQQRQLIIDNFPKLNRFLTGYDLRHVFNDEMTEFDLTRILTGSEGTLAFITEARLDITRLPKVRRLVNVKYDSFDSALRNAPFMVEARALSVETVDSKVLNLAREDIVWHSVSELITDVPDQEMLGLNIVEFAGDDEALIDERVNALCARLDELIASHQAGVIGWQVCRELAGVERIYAMRKKAVGLLGNAKGAAKPIPFAEDTCVPPEHLADYIAEFRALLDSHGLSYGMFGHVDAGVLHVRPALDMCDPQQEILMKQISDDVVALTAKYGGLLWGEHGKGFRAEYSPAFFGEELFAELRKVKAAFDPHNRLNPGKICPPEGLDAPMMKVDAVKRGTFDRQIPIAVRQQWRGAMECNGNGLCFNFDARSPMCPSMKITQNRIHSPKGRATLVREWLRLLADRGVDPLKLEQELPESGVSLRTLIARTRNSWHANKGEYDFSHEVKEAMSGCLACKACSTQCPIKIDVPEFRSRFLQLYHTRYLRPLRDHLVATVESYAPLMARAPKTFNFFINQPLVRKLSEKHIGMVDLPLLSVPSLQQQMVGHRSANMTLEQLESLNAEQKARTVLVVQDPFTSYYDAQVVADFVRLVEKLGFQPVLLPFSPNGKAQHIKGFLNRFAKTAKKTADFLNRMAKLGMPMVGVDPALVLCYRDEYKLALGEERGEFNVLLANEWLASALESQPVATVSGESWYFFGHCTEVTALPGAPAQWAAIFARFGAKLENVSVGCCGMAGTYGHEAKNHENSLGIYELSWHQAMQRLPRNRCLATGYSCRSQVKRVEGTGVRHPVQALLEIIK | 5.93 ± 0.31 h | 5.92 ± 0.38 h | 6.06 ± 0.28 h | 6.07 ± 0.22 h | 5.58 ± 0.1 h | 2.92 ± 0.41 h | 5.76 ± 0.42 h | 11.1 ± 0.65 h | 5.75 ± 0.096 h | 12.3 ± 0.23 h | 5.88 ± 0.11 h | 11.6 ± 0.3 h
MTIKNVICDIDGVLMHDNVAVPGAAEFLHGIMDKGLPLVLLTNYPSQTGQDLANRFATAGVDVPDSVFYTSAMATADFLRRQEGKKAYVVGEGALIHELYKAGFTITDVNPDFVIVGETRSYNWDMMHKAAYFVANGARFIATNPDTHGRGFYPACGALCAGIEKISGRKPFYVGKPSPWIIRAALNKMQAHSEETVIVGDNLRTDILAGFQAGLETILVLSGVSSLDDIDSMPFRPSWIYPSVAEIDVI [P0AF24] | 6.46 ± 0.48 h | 5.48 ± 0.16 h | 5.64 ± 0.15 h | 5.88 ± 0.64 h | 5.58 ± 0.17 h | 3.14 ± 0.041 h | 5.71 ± 0.07 h | 11.6 ± 1.2 h | 5.465 ± 0.045 h | 9.89 ± 0.17 h | 6 ± 0.44 h | 10.4 ± 2.1 h
MFIGFDYGTANCSVAVMRDGKPHLLKMENDSTLLPSMLCAPTREAVSEWLYRHHDVPADDDETQALLRRAIRYNREEDIDVTAKSVQFGLSSLAQYIDDPEEVWFVKSPKSFLGASGLKPQQVALFEDLVCAMMLHIRQQAQAQLPEAITQAVIGRPINFQGLGGDEANTQAQGILERAAKRAGFRDVVFQYEPVAAGLDYEATLQEEKRVLVVDIGGGTTDCSLLLMGPQWRSRLDREASLLGHSGCRIGGNDLDIALAFKNLMPLLGMGGETEKGIALPILPWWNAVAINDVPAQSDFYSSANGRLLNDLVRDAREPEKVALLQKVWRQRLSYRLVRSAEECKIALSSVAETRASLPFISNELATLISQRGLESALSQPLTRILEQVQLALDNAQEKPDVIYLTGGSARSPLIKKALAEQLPGIPIAGGDDFGSVTAGLARWAEVVFR | 4.24 ± 0.21 h | 3.46 ± 0.21 h | 3.42 ± 0.99 h | 3.061 ± 0.019 h | 2.69 ± 0.13 h | 2.8 ± 0.11 h | 5.13 ± 0.5 h | 9.46 ± 2.2 h | 3.1 h | 3.87 h | 4.93 ± 0.058 h | 7.96 ± 0.29 h
